# Biological target: Factor-inhibiting HIF-1 (human, UniProt Q9NWT6 1-349)
# Assay: other fluorescence titration
binder,measurement,value
"H-DESGLPQLTSYDAEVNAPIQGSRNLLQGEELLRALDQVN-OH [39-residue CTAD peptide substrate, human HIF-1α 788–826 with C800A]",Kd,92 ± 9 µM

# Reference: paper PMC7003530 (Biochemistry, 2019)
